Measured values: the supplement of paper PMC10724198
± gives the standard deviation of the averaged measurements.

Experiments:
Saccharomyces cerevisiae [1] = test: protein stability index of tFT-peptide fusion (C-terminal peptide) (PSI (0-1 scale)); higher = more stable (slower turnover); settings: genetic background: wild type; temperature: 30 C
Saccharomyces cerevisiae [2] = test: as above
Method: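 MPS profiling in S. cerevisiae of the tFT-X12 degron library: putative degron peptides plus stable controls, 12 aa, fused to the C-terminus of a sfGFP-mCherry timer. Cells are FACS-sorted into 8 mCherry/sfGFP bins and deep-sequenced. PSI runs from 0 (unstable) to 1 (stable). Backgrounds are wild type, das1Δ and doa10Δ at 30 °C, and wild type, das1Δ, cdc34-1 and cdc53-1 at 37 °C; 2-3 technical replicates each.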

[3] = genetic background: cdc34-1, temperature: 37 C
[4] = genetic background: cdc53-1, temperature: 37 C
[5] = genetic background: das1 deletion, temperature: 30 C
[6] = genetic background: das1 deletion, temperature: 37 C
[7] = genetic background: doa10 deletion, temperature: 30 C
[8] = genetic background: wild type, temperature: 30 C
[9] = genetic background: wild type, temperature: 37 C
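Note: PSI is a weighted mean of sequencing reads over stability bins, variants kept only with over 10 reads, mCherry proximal and sfGFP distal, peptide attached via GGGS linker.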

| Sequence | protein stability index (Saccharomyces cerevisiae [1]) | protein stability index (Saccharomyces cerevisiae [2]; [3]) | protein stability index (Saccharomyces cerevisiae [2]; [4]) | protein stability index (Saccharomyces cerevisiae [2]; [5]) | protein stability index (Saccharomyces cerevisiae [2]; [6]) | protein stability index (Saccharomyces cerevisiae [2]; [7]) | protein stability index (Saccharomyces cerevisiae [2]; [8]) | protein stability index (Saccharomyces cerevisiae [2]; [9]) |
| --- | --- | --- | --- | --- | --- | --- | --- | --- |
| GIGVVWLDVFKT | 0.426 ± 0.017 | 0.4 ± 0.0057 | 0.499 ± 0.024 | 0.321 ± 0.035 | 0.537 ± 0.011 | 0.301 ± 0.024 | 0.304 ± 0.017 | 0.504 ± 0.035 |
| GIKLNVVYILLG | 0.482 ± 0.072 | 0.486 ± 0.045 | 0.544 ± 0.025 | 0.377 ± 0.03 | 0.644 ± 0.017 | 0.34 ± 0.041 | 0.35 ± 0.05 | 0.536 ± 0.0097 |
| GKHILLISLNIT | 0.351 ± 0.0065 | 0.281 ± 0.024 | 0.395 ± 0.067 | 0.252 ± 0.045 | 0.5 ± 0.013 | 0.246 ± 0.022 | 0.251 ± 0.046 | 0.455 ± 0.02 |
| GKVSSFVLFHIS | 0.301 ± 0.013 | 0.649 ± 0.039 | 0.761 ± 0.033 | 0.622 ± 0.031 | 0.7502 ± 0.0042 | 0.202 ± 0.024 | 0.234 ± 0.021 | 0.475 ± 0.0066 |
| GLAVLSWLYIEL | 0.487 ± 0.013 | 0.557 ± 0.022 | 0.57162 ± 0.00039 | 0.457 ± 0.031 | 0.598 ± 0.013 | 0.445 ± 0.019 | 0.461 ± 0.014 | 0.57036 ± 0.0001 |
| GLCFRVCIWVFV | 0.195 ± 0.041 | 0.176 ± 0.0029 | 0.284 ± 0.024 | 0.206 ± 0.025 | 0.364 ± 0.0058 | 0.103 ± 0.016 | 0.125 ± 0.025 | 0.218 ± 0.0086 |
| GLGWLLFVVERV | 0.453 ± 0.032 | 0.457 ± 0.019 | 0.499 ± 0.046 | 0.359 ± 0.037 | 0.552 ± 0.011 | 0.34 ± 0.018 | 0.345 ± 0.025 | 0.511 ± 0.027 |
| GLSLLLLWFKVC | 0.169 ± 0.017 | 0.174 ± 0.0095 | 0.36 ± 0.0093 | 0.307 ± 0.027 | 0.463 ± 0.014 | 0.0902 ± 0.0054 | 0.104 ± 0.025 | 0.0839 ± 0.013 |
| GLSVFFFVGFIF | 0.418 ± 0.047 | 0.38 ± 0.091 | 0.452 ± 0.033 | 0.339 ± 0.022 | 0.526 ± 0.021 | 0.306 ± 0.017 | 0.322 ± 0.02 | 0.521 ± 0.031 |
| GLVSCWIDPSMA | 0.714 ± 0.04 | 0.697 ± 0.0081 | 0.77 ± 0.032 | 0.635 ± 0.0088 | 0.73 ± 0.025 | 0.597 ± 0.021 | 0.628 ± 0.03 | 0.708 ± 0.023 |
| GPCRPWIVVYAG | 0.475 ± 0.066 | 0.566 ± 0.036 | 0.595 ± 0.042 | 0.357 ± 0.034 | 0.5831 ± 0.0018 | 0.295 ± 0.022 | 0.333 ± 0.018 | 0.512 ± 0.0063 |
| GPWVIFSHLLLT | 0.404 ± 0.023 | 0.459 ± 0.037 | 0.49 ± 0.017 | 0.405 ± 0.017 | 0.546 ± 0.013 | 0.258 ± 0.0084 | 0.249 ± 0.02 | 0.3963 ± 0.0027 |
| GRFGVGVVFRLA | 0.456 ± 0.043 | 0.669 ± 0.038 | 0.72 ± 0.016 | 0.637 ± 0.028 | 0.719 ± 0.01 | 0.347 ± 0.032 | 0.393 ± 0.027 | 0.6096 ± 0.0043 |
| GRGRGGRWGRLC | 0.269 ± 0.05 | 0.642 ± 0.05 | 0.739 ± 0.016 | 0.646 ± 0.0085 | 0.75048 ± 0.00029 | 0.201 ± 0.023 | 0.215 ± 0.024 | 0.476 ± 0.023 |
| GRLRLGVLCGGV | 0.529 ± 0.045 | 0.611 ± 0.016 | 0.661 ± 0.014 | 0.469 ± 0.021 | 0.655 ± 0.018 | 0.454 ± 0.0071 | 0.472 ± 0.013 | 0.634 ± 0.017 |
| GRVFSSFFLYIS | 0.0831 ± 0.0098 | 0.051 ± 0.02 | 0.0556 ± 0.0033 | 0.112 ± 0.011 | 0.184 ± 0.011 | 0.14 ± 0.0057 | 0.0543 ± 0.017 | 0.0883 ± 0.017 |
| GRVYLLGLYMSF | 0.373 ± 0.0094 | 0.453 ± 0.041 | 0.485 ± 0.026 | 0.306 ± 0.083 | 0.525 ± 0.064 | 0.3887 ± 0.0029 | 0.338 ± 0.026 | 0.481 ± 0.037 |
| GSLGHCWFLFGV | 0.463 ± 0.016 | 0.59 ± 0.038 | 0.538 ± 0.011 | 0.539 ± 0.022 | 0.461 ± 0.0075 | 0.556 ± 0.064 | 0.538 ± 0.0098 | 0.475 ± 0.021 |
| GSLHVISVVGML | 0.52 ± 0.034 | 0.696 ± 0.012 | 0.709 ± 0.019 | 0.592 ± 0.016 | 0.695 ± 0.018 | 0.393 ± 0.0045 | 0.439 ± 0.018 | 0.595 ± 0.014 |
